Measured values reported in PMC10063446 (Nature Immunology, 2023).
Numbering of substitutions follows the chain as printed. In names and notes the source's numbering stands.

B1: P104-1G2 (antibody, V domains shown)
VH: QLQLQESGPGLVKPSETLSLTCTVSGGSISSSSYYWGWIRQPPGKGLEWIGSIYYGGSTYYNPSLKSRVTISVDTSKNQFSLKLSSVTAADTAVYYCARSLGIFDYWGQGTLVTVSS
VL: DIQMTQSPSSLSASVGDRVTITCRASQGISNSLAWYQQKPGKAPKLLLYGASTLESGVPSRFSGSGSATDYTLTISSLQPEDFATYYCQQYYSNPPYTFGQGTKLEIK
B2: P186-2B1 (antibody, V domains shown)
VH: EVQLVESGGGLVQPGGSLRLSCAASGFTVSSNYMSWVRQAPGKGLEWVSVIYSGGSTYYTDSVKGRFTISRHNSKNTLYLQMNSLRVEDTAVYYCARVGTNYINNSGWYFDYWGQGTLVTVSS
VL: not shown
B3: P195-1E11 (antibody, V domains shown)
VH: EVQLVESGGGLVQPGRSLRLSCAASGFTFDDYAMHWVRQAPGKGLEWVSGISWNSGSIVYADSVKGRFTISRDNAKNSLYLQMNSLRAEDTALYYCAKDSEDCSSTNCYFDYWGQGTLVTVSS
VL: not shown
B4: P186-1H2 (antibody, V domains shown)
VH: EVQLVESGGGLVQPGRSLRLSCAASGFTFGDYAMHWVRQSPGKGLEWVSGITWNSAGIGYADSVKGRFTISRDNAKNSLYLQMNSLRVEDTALYYCAKAPKWGGVDYLFDYWGQGTLVTVSS
VL: not shown
B5: P195-2A1 (antibody, V domains shown)
VH: EVQLVESGGGLVQPGGSLRLSCAASGFTVSSNYMSWVRQAPGKGLEWVSVIYSGGSTYYADSVKGRFTISRDNSKNTLYLQMNSLRAEDTAVYYCARGEGGDLPFDYWGQGTLVTVSS
VL: QSALTQPASVSGSPGQSITISCTGTSSDVGGYYYVSWFQQHPGEAPKLMIFDVSKRPSGVSNRFSGSKSGNTASLTISGLQAEDEADYYCSSYTSSSTSHVLFGGGTKLTVL
B6: P2-2H8 (antibody, V domains shown)
VH: QVQLVQSGAEVKKPGSSVKVSCKASGGTFSSYAISWVRQAPGQGLEWMGRIISMLGIANYAQKFQGRVTITADKSTSTAYMELSSLRSEDTAIYFCARDPDIHYDSSGYSHYYGMDVWGQGTTVTVSS
VL: DIVMTQSPLSLPVTPGEPASISCRSSQSLLHGNGYNYLDWYLQRPGQSPQLLIYLGSNRASGVPGRFSGSGSGTDFTLKISRVEAEDVGVYYCMQALQTLITFGQGTQLEIK
B7: P195-1B7 (antibody, V domains shown)
VH: QITLKESGPTLVKPTQTLTLTCTFSGFSLSTSGVGVGWIRQPPGKALEWLALIYWDDDKRYSPSLKSRLTITKDTSKNQVVLTMTNMDPVDTATYYCAHSGYSGYDWRGFDYWGQGTLVTVSS
VL: SYELTQPPSVSVSPGQTARITCSADALPKQYAYWYQQKPGQAPVLVIYKDSERPSGIPERFSGSSSGTTVTLTISGVQAEDEADYYCQSADSSGTYPVVFGGGTKLTVL
B8: P5-1A7 (antibody, V domains shown)
VH: EVQLVESGGDLIQPGGSLRLSCAASGFTVSSNYMSWVRQAPGKGLEWVAVIYSGGSTYYADSVKGRFTISRDNSKNTLYLQMNSLRAEDTAVYYCARDYGDFYFDYWGQGTLVTVSS
VL: not shown
B9: P2-1D5 (antibody, V domains shown)
VH: QVQLVESGGGVVQPGRSLRLSCAASGFTFSSSVMHWVRQAPGKGLEWVALIWYDGSNKYYADSVKGRFTISRDNSKNTLYLQMNSLRAEDTAVYYCARDREITMTTFDYWGQGTLVTVSS
VL: not shown
B10: P5S-3D10 (antibody, V domains shown)
VH: EVQLVESGGDLVQPGRSLRLSCAASGFTFSLFAMSWVRQAPGKGLEWVSTISGRGDSSYYADSVKGRFTISRDNSKNTLYLQITGLRAEDTAVYYCAKGVDGDYGNWFDPWGQGALVTVSS
VL: SYVLTQPPSVSVAPGKTARITCGGNNIGSKSVHWYQQKPGQAPVLVIYYDSDRPSGIPERISGSNSGNTATLTISRVEAGDEADYYCQVWHSSSVIFGGGTKLTVL
B11: P195-2B8 (antibody, V domains shown)
VH: EVQLVESGGGLIHPGGSLRLSCAASGFTVSSNYMTWVRQAPGKGLEWVSVIYSGGSTFYADSVKGRFTISRDNSKNTLYLQMNSLRAQDTAVYYCARDLSVYGMDVWGQGTTVTVSS
VL: DIQLTQSPSFLSASVGDRVTITCRASQGISSYLAWYQQKPGKAPKLLIYAASTLQSGVPSRFSGSGSGTEFTLTISSLQPEDFATYYCQQLNSDSFTFGPGTKVDIK
B12: P2-1G7 (antibody, V domains shown)
VH: EVQLVESGGGLIQPGGSLRLSCAASGFIVSSNYMTWVRQAPGKGLEWVSVLFSGGSTFYADSVKGRFTISRDNSKNTLYLQMNSLRAEDTAVYYCARENGGYYFDYWGQGTLVTVSS
VL: B11 VL with S31T, S93N, D94Y, S95P, F96P, T97D, P100G, D105E
B13: P2S-2A6 (antibody, V domains shown)
VH: EVQLVESGGGLVQPGRSLRLSCAASGMTFDDYDMHWVRQVPGKGLEWVSGISWNGGIIGYADSVKGRFTISRDNAKTSLYLQMNSLRAEDTALYYCAKVAGRGDYDYYYGMDVWGQGTTVTVSS
VL: QSVLTQPPSVSGAPGQRVTISCTGSSSNIGAGYDVHWYQQLPGTAPKLLIYGNNNRPSGVPDRFSGSKSGTSASLAITGLQAEDEADYYCQSYDSSLSGSVFGGGTKLTVL
B14: P2S-1H6 (antibody, V domains shown)
VH: B13 VH with M27F, V40A, R87K, A88P
VL: B13 VL
B15: P10S-1D8 (antibody, V domains shown)
VH: QMQLVQSGPEVKKPGTSVKVPCKASGFTFSSSAVQWVRQARGQRLEWIGWIVVGSGNTNYAQKFQERVTITRDMSTSTAYMELSSLRSEDTAVYYCAAPGCNSTSCYDGFDIWGQGTMVTVSS
VL: not shown
B16: P10S-2F9 (antibody, V domains shown)
VH: QVTLRESGPALVKPTQTLPLTCTFSGFSLSTSGMCVSWIRQPPGKALEWLALIDWDDNKYYSTSLKARLTISKDTSKNQVVLTMTNMDPVDTATYYCARIPALLRYLDKFYYFGMDVWGQGTTVTVSS
VL: QSVLTQPPSVSAAPGQKVTISCSGSSPNIGNNYVSWYQQLPGTAPKLLIYDNNKRPSGIPDRFSGSKSGTSATLGITGLQTGDEAGYYCGTWDSSLSAVVFGGGTKLTVL
B17: P5S-1D8 (antibody, V domains shown)
VH: EVQLVESGGGLVQPGRSLRLSCAASGFTFDDYAMYWVRQAPGKGLEWVSGVSWNSGTIGYADSVKGRFIISRDNAKNSLYLQMRSLRTEDTALYYCAKDSATRYYSGSDYTSYGMDVWGQGTTVTVSS
VL: QSALTQPASVSGSPGQSITVSCTGTSSDIGDYNYVSWYQQHPGKAPKLMIYDVSNRPSGASNRFSGSKSGNTASLTISGLQAEDEADYYCSSYTSSSTVVFGGGTKVTVL
B18: P2-1G1 (antibody, V domains shown)
VH: EVQLVESGGGLVQPGRSLRLSCAASGFTFDDYAMHWVRQAPGKGLEWVSGMSWNSGTIGYADSVKGRFTISRDNAKNSLYLQMNSLRPEDTALYYCAKDIGGAEMATRNYGMDVWGQGTTVTVSS
VL: B17 VL with V20I, T25A, I29V, D31G, N55E, A60V, V99L, V107L
B19: P2-2D8 (antibody, V domains shown)
VH: EVQLVESGGGLVKPGGSLRLSCAASGFTFSNAWMNWVRQAPGKGLEWVGRIKSKADGGTTDYAAPVKGRFTISRDDSKNTLYLQMNSLKTDDTAVYYCTTTRAVAATLNFLFSYYDGMDVWGQGTTVTVSS
VL: NFMLTQPHSVSESPGKTVTISCTGSSGSIASNYVQWYQQRPGSAPTTVIYEDNQRPSGVPDRFSGSIDSSSNSASLTISGLKTEDEADYYCQSYDSNNHLVLFGGGTKLTVL
B20: P5-2H11 (antibody, V domains shown)
VH: EVQLVESGGGLIQPGGSLRLSCAASEFTVSSNYMSWVRQAPGKGLEWVSIIYSGGSTFYADSVKGRFTISRDNSQNTLYLQMNSLRAEDTAVYYCARTLPLYGDYFDYWGQGTLVTVSS
VL: QSVLTQPPSVSGAPGQRVTISCTGSSSNIGAGYDVHWYQQLPGTAPKLLIYGNNNRPSGVPDRFSGSKSGTSASLAITGLQPEDEADYYCQSYDSSLSVVFGGGAKLTVL
B21: P5S-2G9 (antibody, V domains shown)
VH: QVTLRESGPALVKPTQTLTLTCTFSGFSLRTTGMCVSWIRQPPGKALEWLALIDWDGDKYYATSLETRLTISKDTSENQVVLTMTNMDPVDTATYYCVRTLRLRWLDFWGQGTLVTVSS
VL: DIQMTQSPSSLSASVGDRVTITCRASQSIGTSLNWYQQKPVKAPNLLIYGASSLQSGVPSRFSGSGSGTDFTLTISSLQPEDFATYYCQQGYTTPLTFGGGTKVEIK
B22: P195-2A3 (antibody, V domains shown)
VH: QVTLRESGPALVKPTQTLTLTCTFSGFSLSTSGMCVSWIRQPPGKALEWLALIDWDDDKYYSTSLKTRLTISKDTSKNQVVLRMTNMDPVDTATYYCARSWVGGGLDVWGQGTTVTVSS
VL: not shown

The binders below were run against recombinant wild-type SARS-CoV-2 S trimer (ELISA antigen) (SARS-CoV-2 wild-type, UniProt P0DTC2).
B1: binds.
B2: binds.
B3: binds.
B4: binds.
B5: binds.
B6: binds.
B7: binds.
B8: binds.
B9: binds.
B10: binds.
B11: binds.
B12: binds.
B13: binds.
B14: binds.
B15: binds.
B16: binds.
B17: binds.
B18: binds.
B19: binds.
B20: binds.
B21: binds.
B22: binds.

Each binder was assayed against recombinant RBD protein of wild-type SARS-CoV-2 (ELISA antigen) (SARS-CoV-2 wild-type, UniProt P0DTC2).
B1: binds.
B2: binds.
B3: binds.
B4: binds.
B5: binds.
B6: binds.
B7: binds.
B8: binds.
B9: binds.
B10: binds.
B11: binds.
B12: binds.
B13: binds.
B14: binds.
B15: binds.
B16: binds.
B17: binds.
B18: binds.
B19: binds.
B20: binds.
B21: binds.
B22: binds.
